Like-named read-outs stand apart in the source and are kept apart here.

Test [1] has as its target neuraminidase of the ancestral B/Lee/40 strain (influenza B virus B/Lee/40, UniProt P03474 1-466). In words: ELISA on purified whole virus.
For test [2], the target named is recombinant neuraminidase (rNA) from B/Malaysia/2506/04 (influenza B virus B/Malaysia/2506/04).
Test [3] has as its target neuraminidase of wild type B/Malaysia/2506/04 virus (influenza B virus B/Malaysia/2506/04).
Test [4] has as its target recombinant neuraminidase (rNA) from B/Malaysia/2506/04 (influenza B virus B/Malaysia/2506/04). This is another data set of the same source.
Test [5] has as its target neuraminidase of wild type B/Malaysia/2506/04 virus (influenza B virus B/Malaysia/2506/04). This is another data set of the same source.
Test [6] addresses recombinant neuraminidase (rNA) from B/Florida/04/2006 (influenza B virus B/Florida/04/06).
In test [7] the target is neuraminidase of wild type B/Malaysia/2506/04 virus (influenza B virus B/Malaysia/2506/04). This is another data set of the same source.
Test [8] concerns the target recombinant neuraminidase (rNA) from B/Florida/04/2006 (influenza B virus B/Florida/04/06). This is another data set of the same source.

neuraminidase of the ancestral B/Lee/40 strain, sequence (P03474 whole entry): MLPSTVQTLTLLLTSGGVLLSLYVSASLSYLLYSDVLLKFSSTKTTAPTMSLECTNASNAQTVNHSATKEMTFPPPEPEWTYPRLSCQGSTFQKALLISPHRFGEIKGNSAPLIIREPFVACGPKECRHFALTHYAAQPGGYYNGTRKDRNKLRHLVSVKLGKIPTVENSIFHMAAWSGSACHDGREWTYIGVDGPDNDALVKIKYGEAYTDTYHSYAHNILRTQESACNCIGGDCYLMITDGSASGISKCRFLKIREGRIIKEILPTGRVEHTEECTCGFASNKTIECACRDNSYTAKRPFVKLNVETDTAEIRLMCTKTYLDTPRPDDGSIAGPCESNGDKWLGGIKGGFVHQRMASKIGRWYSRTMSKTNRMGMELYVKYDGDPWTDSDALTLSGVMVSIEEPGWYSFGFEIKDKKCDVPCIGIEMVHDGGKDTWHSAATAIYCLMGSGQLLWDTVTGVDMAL

B1: monoclonal antibody 4B2 (hybridoma-produced, murine IgG2a) (antibody, V domains shown)
VH: QIQLVQSGPELKKPGETVKISCKASGFTFTDYPMHWVKQAPGKSLKWMGWINTETEEPTYSDDFKGRSPLSLETSASTTYLQINNLKNEDTSTYFCVRSGYYYGSTYAWFGYWGQGTLVTVSA
VL: DVVMTQIPLSLPVSLGDQASISCRSSQSLIHTNGDTFLHWYLQKPGQSPKLLIYKVSNRFSGVPDRFTGGGSGTDFTLKISRVEAEDLGIYFCSQSALFPYTFGGGTNLEIK
With B1, the binding result in test [1] is listed as “binds”.

B2: recombinantly expressed 4F11 IgG2b (antibody, V domains shown)
VH: DVKLVESGGDLVKPGGSLKLSCAASGFTFSAYSMSWVRQTPERRLEWVATINTGGSFTYYPDSVKGRFTISRDNAKNTLYLQMSSLKSEDTAMYFCTRVSDYGNSAYFPYWGQGTLVIVFA
VL: QVVLTQSPALISASPGEKVTMTCSASSNVNYMSWYQQRPRSSPKPWIYLTSKLASGVPPRFSGSGSGTSYSLTISSMEAEDVATYYCQQWSSDPQTFGGGTKVEIK
On to B2, for which the Kd in test [2] is 0.00298 nM. The IC50 (read off the curve) in test [3] came to 0.2 µg/mL. Further, in test [4], the concentration for a half-maximal effect (EC50 (read off the curve)) is 0.06 µg/mL.

B3: recombinantly expressed 4F11 monomeric IgA (antibody, V domains shown)
VH: DVKLVESGGDLVKPGGSLKLSCAASGFTFSAYSMSWVRQTPERRLEWVATINTGGSFTYYPDSVKGRFTISRDNAKNTLYLQMSSLKSEDTAMYFCTRVSDYGNSAYFPYWGQGTLVIVFA
VL: QVVLTQSPALISASPGEKVTMTCSASSNVNYMSWYQQRPRSSPKPWIYLTSKLASGVPPRFSGSGSGTSYSLTISSMEAEDVATYYCQQWSSDPQTFGGGTKVEIK
Regarding B3, the dissociation constant Kd in test [2] was determined as 0.00472 nM.

B4: recombinantly expressed 4F11 polymeric IgA (antibody, V domains shown)
VH: DVKLVESGGDLVKPGGSLKLSCAASGFTFSAYSMSWVRQTPERRLEWVATINTGGSFTYYPDSVKGRFTISRDNAKNTLYLQMSSLKSEDTAMYFCTRVSDYGNSAYFPYWGQGTLVIVFA
VL: QVVLTQSPALISASPGEKVTMTCSASSNVNYMSWYQQRPRSSPKPWIYLTSKLASGVPPRFSGSGSGTSYSLTISSMEAEDVATYYCQQWSSDPQTFGGGTKVEIK
In the case of B4, in test [2], the Kd was 0.00242 nM.

B5: recombinantly expressed 4F11 IgM (antibody, V domains shown)
VH: DVKLVESGGDLVKPGGSLKLSCAASGFTFSAYSMSWVRQTPERRLEWVATINTGGSFTYYPDSVKGRFTISRDNAKNTLYLQMSSLKSEDTAMYFCTRVSDYGNSAYFPYWGQGTLVIVFA
VL: QVVLTQSPALISASPGEKVTMTCSASSNVNYMSWYQQRPRSSPKPWIYLTSKLASGVPPRFSGSGSGTSYSLTISSMEAEDVATYYCQQWSSDPQTFGGGTKVEIK
In the case of B5, the equilibrium dissociation constant (Kd) in test [2] came out at 0.00511 nM.

B6: recombinantly expressed 4F11 IgG1 (antibody, V domains shown)
VH: DVKLVESGGDLVKPGGSLKLSCAASGFTFSAYSMSWVRQTPERRLEWVATINTGGSFTYYPDSVKGRFTISRDNAKNTLYLQMSSLKSEDTAMYFCTRVSDYGNSAYFPYWGQGTLVIVFA
VL: QVVLTQSPALISASPGEKVTMTCSASSNVNYMSWYQQRPRSSPKPWIYLTSKLASGVPPRFSGSGSGTSYSLTISSMEAEDVATYYCQQWSSDPQTFGGGTKVEIK
As for B6, the Kd in test [2] was determined as 0.00891 nM.

B7: monoclonal antibody 4F11 (hybridoma-produced, murine IgG2b) (antibody, V domains shown)
VH: DVKLVESGGDLVKPGGSLKLSCAASGFTFSAYSMSWVRQTPERRLEWVATINTGGSFTYYPDSVKGRFTISRDNAKNTLYLQMSSLKSEDTAMYFCTRVSDYGNSAYFPYWGQGTLVIVFA
VL: QVVLTQSPALISASPGEKVTMTCSASSNVNYMSWYQQRPRSSPKPWIYLTSKLASGVPPRFSGSGSGTSYSLTISSMEAEDVATYYCQQWSSDPQTFGGGTKVEIK
As to B7, the binding result in test [1] is “binds”. Also, the IC50 (read off the curve) in test [3] came to 0.2 µg/mL. Moreover, in test [4], the EC50 (read off the curve) came out at 0.05 µg/mL.

B8: recombinantly expressed 4F11 IgG2a (antibody, V domains shown)
VH: DVKLVESGGDLVKPGGSLKLSCAASGFTFSAYSMSWVRQTPERRLEWVATINTGGSFTYYPDSVKGRFTISRDNAKNTLYLQMSSLKSEDTAMYFCTRVSDYGNSAYFPYWGQGTLVIVFA
VL: QVVLTQSPALISASPGEKVTMTCSASSNVNYMSWYQQRPRSSPKPWIYLTSKLASGVPPRFSGSGSGTSYSLTISSMEAEDVATYYCQQWSSDPQTFGGGTKVEIK
B8: in test [2], the dissociation constant Kd worked out at 0.00336 nM.

B9: monoclonal antibody 3G1 (hybridoma-produced, murine IgG2a) (antibody, V domains shown)
VH: QVQLQQSGAELMKPGASVKISCKATGYKFTSYWIGWVKQRPGHGLEWCGEIFPGSGSINYNEKFKGKATFTADTSSNTAYLQLTSLTSEDSAVYYCARGEDYYGSSYGAMDYWGQGTSLTVSS
VL: DVQITQSPSYLAASPGETITINCRASKSISKYVAWYQEKPGRTNKVLIYSGSILSFGNPSRFSGSGSGTDFTLTISSLEPEDFAMYYCQQHNEYPWTFGGGTKLEIK
For the molecule B9, the binding result in test [1] is “binds”. This molecule registered an IC50 (read off the curve) in test [5] of 3 µg/mL.

B10: monoclonal antibody 1F2 (hybridoma-produced, murine IgG2a) (antibody, V domains shown)
VH: QVHLQQSGPEVARPGASVKLSCKASGYTFTDYYLNWVKQRPRQGLEWIGQIHPGSTNTYYNEKFKGKATLTADKSSSTAYMQLSSLTFEDSAVYFCAISLGDGYYVYAMVCWGQGTAVTVSS
VL: DIVMTQSQKFMSTSVGDRVSVTCKASQNVVTNVVWYQQKPGQSPKPLIYSASYRYSGVPDRFTGSGSGTDFTLTISNVQSEDLAEYCCQQYHSYPFTFGSGTKLEVK
In the case of B10, in test [6], the EC50 (read off the curve) was 0.03 µg/mL. For the same molecule, the binding result in test [1] is given as “binds”. The IC50 (read off the curve) in test [5] worked out at 2 µg/mL; in test [7] it was 0.09 µg/mL.

B11: recombinantly expressed 1F2 polymeric IgA (antibody, V domains shown)
VH: QVHLQQSGPEVARPGASVKLSCKASGYTFTDYYLNWVKQRPRQGLEWIGQIHPGSTNTYYNEKFKGKATLTADKSSSTAYMQLSSLTFEDSAVYFCAISLGDGYYVYAMVCWGQGTAVTVSS
VL: DIVMTQSQKFMSTSVGDRVSVTCKASQNVVTNVVWYQQKPGQSPKPLIYSASYRYSGVPDRFTGSGSGTDFTLTISNVQSEDLAEYCCQQYHSYPFTFGSGTKLEVK
Turning to B11, the Kd in test [2] came to 0.28 nM.

B12: 1F2 Fab (Fab, V domains shown)
VH: QVHLQQSGPEVARPGASVKLSCKASGYTFTDYYLNWVKQRPRQGLEWIGQIHPGSTNTYYNEKFKGKATLTADKSSSTAYMQLSSLTFEDSAVYFCAISLGDGYYVYAMVCWGQGTAVTVSS
VL: DIVMTQSQKFMSTSVGDRVSVTCKASQNVVTNVVWYQQKPGQSPKPLIYSASYRYSGVPDRFTGSGSGTDFTLTISNVQSEDLAEYCCQQYHSYPFTFGSGTKLEVK
B12 yielded an IC50 (read off the curve) in test [5] of 3 µg/mL.

B13: recombinantly expressed 1F2 IgG2a (antibody, V domains shown)
VH: QVHLQQSGPEVARPGASVKLSCKASGYTFTDYYLNWVKQRPRQGLEWIGQIHPGSTNTYYNEKFKGKATLTADKSSSTAYMQLSSLTFEDSAVYFCAISLGDGYYVYAMVCWGQGTAVTVSS
VL: DIVMTQSQKFMSTSVGDRVSVTCKASQNVVTNVVWYQQKPGQSPKPLIYSASYRYSGVPDRFTGSGSGTDFTLTISNVQSEDLAEYCCQQYHSYPFTFGSGTKLEVK
B13: the concentration for a half-maximal effect (EC50 (read off the curve)) in test [6] amounted to 0.03 µg/mL. Further, the Kd in test [2] turned out to be 0.68 nM. For the same molecule, the IC50 (read off the curve) in test [7] stood at 0.1 µg/mL.

B14: recombinantly expressed 1F2 IgG1 (antibody, V domains shown)
VH: QVHLQQSGPEVARPGASVKLSCKASGYTFTDYYLNWVKQRPRQGLEWIGQIHPGSTNTYYNEKFKGKATLTADKSSSTAYMQLSSLTFEDSAVYFCAISLGDGYYVYAMVCWGQGTAVTVSS
VL: DIVMTQSQKFMSTSVGDRVSVTCKASQNVVTNVVWYQQKPGQSPKPLIYSASYRYSGVPDRFTGSGSGTDFTLTISNVQSEDLAEYCCQQYHSYPFTFGSGTKLEVK
Turning to B14, in test [6], the EC50 (read off the curve) came out at 0.05 µg/mL. In addition, the Kd in test [2] came to 1.05 nM.

B15: recombinantly expressed 1F2 IgG2b (antibody, V domains shown)
VH: QVHLQQSGPEVARPGASVKLSCKASGYTFTDYYLNWVKQRPRQGLEWIGQIHPGSTNTYYNEKFKGKATLTADKSSSTAYMQLSSLTFEDSAVYFCAISLGDGYYVYAMVCWGQGTAVTVSS
VL: DIVMTQSQKFMSTSVGDRVSVTCKASQNVVTNVVWYQQKPGQSPKPLIYSASYRYSGVPDRFTGSGSGTDFTLTISNVQSEDLAEYCCQQYHSYPFTFGSGTKLEVK
As for B15, the half-maximal effective concentration (EC50 (read off the curve)) in test [6] came to 0.03 µg/mL. The equilibrium dissociation constant (Kd) in test [2] was 1.16 nM. In test [7], this molecule yielded an IC50 (read off the curve) of 0.3 µg/mL.

B16: recombinantly expressed 1F2 IgM (antibody, V domains shown)
VH: QVHLQQSGPEVARPGASVKLSCKASGYTFTDYYLNWVKQRPRQGLEWIGQIHPGSTNTYYNEKFKGKATLTADKSSSTAYMQLSSLTFEDSAVYFCAISLGDGYYVYAMVCWGQGTAVTVSS
VL: DIVMTQSQKFMSTSVGDRVSVTCKASQNVVTNVVWYQQKPGQSPKPLIYSASYRYSGVPDRFTGSGSGTDFTLTISNVQSEDLAEYCCQQYHSYPFTFGSGTKLEVK
In the case of B16, the Kd in test [2] was determined as 0.65 nM.

B17: recombinantly expressed 1F2 monomeric IgA (antibody, V domains shown)
VH: QVHLQQSGPEVARPGASVKLSCKASGYTFTDYYLNWVKQRPRQGLEWIGQIHPGSTNTYYNEKFKGKATLTADKSSSTAYMQLSSLTFEDSAVYFCAISLGDGYYVYAMVCWGQGTAVTVSS
VL: DIVMTQSQKFMSTSVGDRVSVTCKASQNVVTNVVWYQQKPGQSPKPLIYSASYRYSGVPDRFTGSGSGTDFTLTISNVQSEDLAEYCCQQYHSYPFTFGSGTKLEVK
For the molecule B17, the Kd in test [2] is 0.958 nM.

B18: monoclonal antibody 1F4 (hybridoma-produced, murine IgG2a) (antibody, V domains shown)
VH: QVHLQQSGSELRSPGSSVKLSCKDFDSEVFPIVYMRWIRQKPGHGFEWIGDILPSFGRTIYGEKFEDKATLDADTVSNTAYLELNSLTSEDSAIYYCARGDHGNWLAYWGQGTLVTVSA
VL: DIVMTQSHKFMSTSVGDRVTITCKASQDVSTNVAWYQQKPGQSPKLLIYWASTRHTGVPNRFTGIISGTDYTLTISSVQAEDRALYYCQQHYSAPWTFGGGTKLEIK
In the case of B18, the binding result in test [1] is given as “binds”. For the same molecule, in test [5], the IC50 (read off the curve) is 4 µg/mL. For the same molecule, the EC50 (read off the curve) in test [8] was found to be 0.05 µg/mL.

Source of the values: patent US20220363736A1 (ICAHN SCHOOL OF MEDICINE AT MOUNT SINAI, published 2022).
